Measurements taken from the supplement of paper PMC9170038.

Tested on: MS2 coat protein
Test: apparent KD of MS2 coat protein; designed switch direction (-1 OFF switch, 1 ON switch): -1; higher = weaker reporter binding
Procedure, shortened: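 Designed RNA switches with common flanks were made on Illumina chips by stalled E. coli RNA polymerase. Titration with SNAP-549-labelled MS2 coat protein doubled from 0.7 or 1.5 nM up to 3 µM. Apparent KD is each design's median over clusters after curve-fitting normalised fluorescence.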

[1] = input ligand: microRNA oligo, concentration not stated
[2] = Eterna round: R95, input ligand: microRNA oligo, concentration not stated
[3] = Eterna round: R95, input ligand: FMN 200 uM
[4] = Eterna round: R95, input ligand: none

Sequence	apparent KD of MS2 coat protein (input ligand: FMN 200 uM)	apparent KD of MS2 coat protein (input ligand: none)	further results
UAUUAGCAAGCAAGAUCCUACAUGAGGAUCACCCAUGUGCUCGUCUUAAGCUCAGAAUUACUGAGCGCUCGUCUUAU [Winner reversed engineered 23] (Eterna round: R97, puzzle: Sensor, turn-off variant 1)	468 nM	645 nM	
UAUUAGCAAGCCAAUGGGUACAUGAGGAUCACCCAUGUGCUCGUCUUAUAAGGUACUGUGACGAAAGUCACGGUACC [mod--Eli10] (Eterna round: R97, puzzle: Sensor, turn-off variant 1)	16.7 nM	17.7 nM	
UAUUAGCAAGCGAGAUCCCACAUGAGGAUCACCCAUGUGCUCGUCUUAUAUAAGGUACUGUACGAAAGUACGGUACC [Sensor 3, v1 - 91 v6] (Eterna round: R97, puzzle: Sensor, turn-off variant 1)	16.6 nM	16.2 nM	
UAUUAGCAAGCGAGAUCUCACAUGAGGAUCACCCAUGUGCUCGUCUUAUAAGGUACUGUGACGAGAGUCACGGUACC [Mat - Sensor, turn-off var - Eli Mod - D37] (Eterna round: R97, puzzle: Sensor, turn-off variant 1)	13 nM	14.1 nM	
UAUUAGCAAGUAAGAUCCCACAUGAGGAUCACCCAUGUGCUCGUCAUAUCAGGUACGGAGCGGAAACUCACGGUACG [Sensor-V1 #87] (Eterna round: R97, puzzle: Sensor, turn-off variant 1)	209 nM	351 nM	
UAUUAGCAAGUGAGAUCCCACAUGAGGAUCACCCAUGUGCUCGUCUUAUAAGGUACUGUGACGAUAGUCACGGUACC [Mat - Sensor, turn-off var - Eli Mod - D1] (Eterna round: R97, puzzle: Sensor, turn-off variant 1)	49.9 nM	49 nM	
UAUUAGCAAGUGAGGUCCCACAUGAGGAUCACCCAUGUGCUCGUCUUAUAAGGUACUGUGACGAGAGUCACGGUACC [Mat - Sensor, turn-off var - Eli Mod - D52] (Eterna round: R97, puzzle: Sensor, turn-off variant 1)	40.2 nM	44.5 nM	
UAUUAUCAAGCAAGAUCCCACAUGAGGAUCACCCAUGUGCUCGUCUUAUUUCCGGAAUUAUUGGGCUCUCGUCUAAU [JR_STOV1_Sub093] (Eterna round: R97, puzzle: Sensor, turn-off variant 1)	90.1 nM	78.2 nM	
UAUUAUCAAGCAAGAUCCCACAUGAGGAUCACCCAUGUGCUCGUCUUAUUUCUGUCCUUAUUGUUCUCUCGUCUAAU [JR_STOV1_v2_Sub096] (Eterna round: R97, puzzle: Sensor, turn-off variant 1)	41.8 nM	39.9 nM	
UAUUAUCAAGCUAGAUCCCACAUGAGGAUCACCCAUGUGCUCGUCUUAUUUCCGGAAUUAUUGGGCUCUCGUCUUUU [JR_STOV1_Sub092] (Eterna round: R97, puzzle: Sensor, turn-off variant 1)	235 nM	238 nM	
UAUUGGCUAGGAUAUCCGGCUGGCGACAUGAGGAUCACCCAUGUGGACUCUGGUUGUCUUGGAGAAGGAGCAUGCG [EX5 B.19] (Eterna round: R97, puzzle: Exclusion 5)	206 nM	138 nM	
UAUUUACAUGAGGAUCACCCAUGUCAGGAUAUGCGUCUAUCGUCGAAAGACGAUAGUCGCAGAAGGGACAAUAU [LRO-Excl01-22 mod derived from EliFisker 4.24] (Eterna round: R97, puzzle: Exclusion 1)	100 nM	48.9 nM	
UAUUUACAUGAGGAUCACCCAUGUCAGGAUAUGUUUCUAUCGUCGAAAGACGAUAGUUGCAGAAGGGACAAUAU [LRO-Excl01-25 mod derived from EliFisker 4.24] (Eterna round: R97, puzzle: Exclusion 1)	94.1 nM	48.5 nM	
UAUUUGUCAGGAUAUGAGUCGUAGAACAAUAGUACUACGUCUCAGAAGGGACAUGAGGAUCACCCAUGUGCCUC [Fiskers Ex 4 Super Stable 44 mod 29] (Eterna round: R96, puzzle: Exclusion 4)	276 nM	28.9 nM	apparent KD of MS2 coat protein [1]: 24.3 nM
UAUUUGUCAGGAUAUGAGUCGUAGAACAAUAGUACUACGUCUCAGAAGGGACAUGAGGAUCACCCAUGUGCCUC [Fiskers Ex 4 Super Stable 44 mod 29] (puzzle: Exclusion 4)			apparent KD of MS2 coat protein [2]: 25.5 nM
UCAACCAGAGGAUAUGCGCAUAGAUCAGACUUUGUUUCUUAACAUGAGGAUCACCCAUGUAGAAGGCUGUAACC [Ex2 #77] (Eterna round: R97, puzzle: Exclusion 2)	20.3 nM	19.8 nM	
UCAAGACAUGAGGAUCACCCAUGUCAGGAUAUCUAGGUUCGCUAUUUCAUUGUUAACGAGAGAAGGGACAUGAU [EX1 C.13] (Eterna round: R97, puzzle: Exclusion 1)	22.9 nM	18 nM	

Sequence	apparent KD of MS2 coat protein (input ligand: FMN 200 uM)	apparent KD of MS2 coat protein (input ligand: none)	further results
UCACGGGACUGAGGAUAUACAUCAACCAUGGUUGUAGAAGGCAGAAGGUUGGAUCAUAUACUAAACAUGAGGAUCACCCAUGUU [JR_ExcNG1_Sub030] (Eterna round: R96, puzzle: Exclusion NG 1)	23.6 nM	20.7 nM	apparent KD of MS2 coat protein [1]: 19.9 nM
UCAGACAUGAGGAUCACCCAUGUGUGACCCUCCUGUCUCAGUCAGGAUAUACUUUUUCAAACUUAGUAGAAGGGACAACAAAAC [Oronerused] (Eterna round: R96, puzzle: Exclusion NG 3)	37.8 nM	61.4 nM	apparent KD of MS2 coat protein [1]: 27.8 nM
UCAGGUCGGUAGGAUAUCGACGGGAAAAGCCCACGAGAAGGACUGACAUGAGGAUCACCCAUGUGAGCGUAACC [EX6 B.1] (Eterna round: R97, puzzle: Exclusion 6)	37.9 nM	101 nM	
UCAUACGGUGAGGAUAUCUCCGCUAAAGUGUGUAGAGAAGGCGCUACAUGAGGAUCACCCAUGUUUAUGGGCAG [Ex-6 Malc#12] (Eterna round: R96, puzzle: Exclusion 6)			apparent KD of MS2 coat protein [1]: 271 nM
UCAUACGGUGAGGAUAUCUCCGCUAAAGUGUGUAGAGAAGGCGCUACAUGAGGAUCACCCAUGUUUAUGGGCAG [Ex-6 Malc#12] (puzzle: Exclusion 6)			apparent KD of MS2 coat protein [3]: 52.9 nM; apparent KD of MS2 coat protein [2]: 347 nM; apparent KD of MS2 coat protein [4]: 443 nM
UCAUACGGUGAGGAUAUCUCCGUUAAAGUAUGUAGAGAAGGCGCUACAUGAGGAUCACCCAUGUUUGUGGGCAG [Ex-6 Malc#10] (puzzle: Exclusion 6)			apparent KD of MS2 coat protein [2]: 323 nM
UCAUGGAAGCAGGAUAUGCUUGUUUAAUUGUUUGCAGAAGGGCUAACAUGAGGAUCACCCAUGUAAGAGGUCUA [JR_E6_Sub063] (Eterna round: R96, puzzle: Exclusion 6)	59.6 nM	72.5 nM	apparent KD of MS2 coat protein [1]: 53.3 nM
UCAUGGAAGCAGGAUAUGCUUGUUUAAUUGUUUGCAGAAGGGCUAACAUGAGGAUCACCCAUGUAAGAGGUCUA [JR_E6_Sub063] (puzzle: Exclusion 6)			apparent KD of MS2 coat protein [2]: 35.3 nM
UCAUGUCCUGAGGAUAUGCAGCGGAUAAACGCAGCAGAAGGCAGGACAUGAGGAUCACCCAUGUGUGCCUUCUA [Exclusion 6 Mod5 of JL of Mod of Letion by ViennaUCT] (Eterna round: R97, puzzle: Exclusion 6)	18.3 nM	190 nM	
UCAUGUCCUGAGGAUAUGUAGCGGAUAAACGCAACAGAAGGCAGGACAUGAGGAUCACCCAUGUGCGCCUUUCA [Exclusion 6 Mod2 of JL of Mod of Letion by ViennaUCT] (Eterna round: R97, puzzle: Exclusion 6)	26.7 nM	84.5 nM	
UCAUGUUUAGAGGAUAUGAUUACUCUAGAGUGAUCAGAAGGCUAGACAUGAGGAUCACCCAUGUCAGAACAUGU [Exclusion 6 - B - 17:a] (puzzle: Exclusion 6)			apparent KD of MS2 coat protein [2]: 24.5 nM
UCCAGUAUAUGGAGAUUUUACAUGAGGAUCACCCAUGUUGGGACAGCUUUUUGCUUGUCUUAUCCUACUUCGUGUGU [Design #4] (Eterna round: R97, puzzle: Sensor, turn-off variant 1)	51 nM	56.3 nM	
UCCGAACAUGAGGAUCACCCAUGUGAGGAUAUCCCGAGAUUAAAUGCCGCAAGAAGGCGGAGAAGGCGCAUGGG [Biditiinen] (puzzle: Exclusion 1)			apparent KD of MS2 coat protein [3]: 20.6 nM; apparent KD of MS2 coat protein [2]: 17.3 nM; apparent KD of MS2 coat protein [4]: 19.5 nM
UCCGGACAUGAGGAUCACCCAUGUCAGGAUAUACCCGAGGCAGCAAACACGCUAGCCAGUAGAAGGGACAUGGU [Geenma] (Eterna round: R97, puzzle: Exclusion 1)	18.3 nM	20.7 nM	
UCCGUUUGAGGAUAUAUGUAGACAAACAUGAGGAUCACCCAUGUCGGGAUCGAAAUGUCCGUAGAAGGCAAACUGG [Eternabot (L2) Solution 13] (Eterna round: R97, puzzle: Exclusion 5)	65.2 nM	22.9 nM	
UCCUGACAUGAGGAUCACCCAUGUUAGGAUAUGACAUUUGGCGCGACAGUGUGGAGUGUUAGAAGGGAUGUGGG [-29.9, -27.2 kcal, A 24%] (Eterna round: R97, puzzle: Exclusion 1)	18.3 nM	16.5 nM	
UCCUUACUGGUCAGGAUAUACAUUCGCGGGUGGGUGUAGAAGGGACAUGAGGAUCACCCAUGUACGUUACAUCC [alecazam54g] (Eterna round: R97, puzzle: Brourd's mod of Exclusion 4)	18 nM	16 nM	
